Measured values published in patent publication US20120253023A1.

Target: T1, amylin receptor (rat), P32214
T1 chain 1: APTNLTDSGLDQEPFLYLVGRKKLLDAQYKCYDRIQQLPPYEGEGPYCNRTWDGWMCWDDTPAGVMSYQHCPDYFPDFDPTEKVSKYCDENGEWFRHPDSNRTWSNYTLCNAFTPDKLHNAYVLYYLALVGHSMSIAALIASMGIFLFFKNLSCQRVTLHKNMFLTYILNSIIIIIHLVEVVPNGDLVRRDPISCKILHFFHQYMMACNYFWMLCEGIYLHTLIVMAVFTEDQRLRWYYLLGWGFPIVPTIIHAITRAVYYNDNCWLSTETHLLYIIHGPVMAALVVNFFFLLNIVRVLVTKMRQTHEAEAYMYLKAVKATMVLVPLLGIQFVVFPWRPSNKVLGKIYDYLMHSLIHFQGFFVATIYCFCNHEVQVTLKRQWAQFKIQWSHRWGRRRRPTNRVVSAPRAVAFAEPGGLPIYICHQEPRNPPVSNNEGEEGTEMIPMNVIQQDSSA
T1 chain 2: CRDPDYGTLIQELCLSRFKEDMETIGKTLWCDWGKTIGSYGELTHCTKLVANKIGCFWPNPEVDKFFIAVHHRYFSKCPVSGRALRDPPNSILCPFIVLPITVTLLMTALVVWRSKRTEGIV

B1: DF(P-CH2SO3)… … (peptide)
peptide: DFMGWMDFGKRKCNTATCATQRLANELVRLQTYPRTNVGSNTY
modifications: not checked
  IC50: 0.083 nM
